Publication PMC13016609, “UV irradiation alters TFAM binding specificity and compaction of DNA”

Key:
Settings in all cases: protein: recombinant; label: 5' 6-FAM on strand 1; blunt
TFAM (no MTS) [1] = molecular target: T1, TFAM (no MTS) (Homo sapiens, UniProt Q00059 43-246); test: fluorescence anisotropy; Hill n 2.07±0.07; FP: 25 mM HEPES, 10 mM Mg(OAc)2, 25 mM NaOAc, 75 mM KOAc, pH 7.5, 1 nM DNA, TFAM 0-15 nM diluted on ice (read temperature not stated); AFM oligos: on ice, 2 min
T1 sequence: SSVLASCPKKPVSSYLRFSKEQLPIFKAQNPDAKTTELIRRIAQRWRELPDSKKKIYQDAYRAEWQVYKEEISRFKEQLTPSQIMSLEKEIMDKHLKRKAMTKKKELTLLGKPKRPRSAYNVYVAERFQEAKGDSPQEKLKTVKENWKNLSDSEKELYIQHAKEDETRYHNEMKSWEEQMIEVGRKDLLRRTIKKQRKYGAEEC

TFAM (no MTS) [2] = molecular target: T1, TFAM (no MTS); test: fluorescence anisotropy; +UVC; Hill n 2.12±0.28; FP: 25 mM HEPES, 10 mM Mg(OAc)2, 25 mM NaOAc, 75 mM KOAc, pH 7.5, 1 nM DNA, TFAM 0-15 nM diluted on ice (read temperature not stated); AFM oligos: on ice, 2 min
TFAM (no MTS) [3] = molecular target: T1, TFAM (no MTS); test: fluorescence anisotropy; +UVC; Hill n 2.19±0.06; FP: 25 mM HEPES, 10 mM Mg(OAc)2, 25 mM NaOAc, 75 mM KOAc, pH 7.5, 1 nM DNA, TFAM 0-15 nM diluted on ice (read temperature not stated); AFM oligos: on ice, 2 min
TFAM (no MTS) [4] = molecular target: T1, TFAM (no MTS); test: fluorescence anisotropy; Hill n 2.46±0.23; FP: 25 mM HEPES, 10 mM Mg(OAc)2, 25 mM NaOAc, 75 mM KOAc, pH 7.5, 1 nM DNA, TFAM 0-15 nM diluted on ice (read temperature not stated); AFM oligos: on ice, 2 min
TFAM (no MTS) [5] = molecular target: T1, TFAM (no MTS); test: fluorescence anisotropy; +UVC; Hill n 2.33±0.10; FP: 25 mM HEPES, 10 mM Mg(OAc)2, 25 mM NaOAc, 75 mM KOAc, pH 7.5, 1 nM DNA, TFAM 0-15 nM diluted on ice (read temperature not stated); AFM oligos: on ice, 2 min

B1: COX1_27 (dsDNA)
DNA 1: AAGACATTGGAACACTATACCTATTATTCGGCG
DNA 2: CGCCGAATAATAGGTATAGTGTTCCAATGTCTT
Q: Which Kd (TFAM (no MTS) [1]) does the source give for B1 here?
A: 6.09 ± 0.43 nM

B2: COX1_27 +UVC (dsDNA)
DNA 1: B1 DNA 1
DNA 2: B1 DNA 2
modifications: UVC 1500 J/m2 photolesions (positions undefined)
Q: Which Kd (TFAM (no MTS) [2]) does the source give for B2 here?
A: 5.9 ± 0.1 nM

B3: ND3_92 +UVC (dsDNA)
DNA 1: TTAGTAGCTATTACCTTCTTATTATTTGATCTA
DNA 2: TAGATCAAATAATAAGAAGGTAATAGCTACTAA
modifications: UVC 1500 J/m2 photolesions (positions undefined)
Q: B3 was tested. Which Kd (TFAM (no MTS) [3]) did it give?
A: 5.54 ± 0.14 nM

B4: RNR2_619 (dsDNA)
DNA 1: ATTGATCCAATAACTTGACCAACGGAACAAGTT
DNA 2: AACTTGTTCCGTTGGTCAAGTTATTGGATCAAT
Q: How did the Kd (TFAM (no MTS) [4]) turn out when B4 was run?
A: 4.89 ± 0.33 nM

B5: RNR2_619 +UVC (dsDNA)
DNA 1: B4 DNA 1
DNA 2: B4 DNA 2
modifications: UVC 1500 J/m2 photolesions (positions undefined)
Q: B5 was tested. Which Kd (TFAM (no MTS) [5]) did it give?
A: 8.13 ± 0.39 nM
